The values that follow come from patent US20250076311A1 (Chugai, published 2025).

In assay [1] the target is T1, cynomolgus monkey FcγRIIIaS extracellular domain with C-terminal His-tag (cynomolgus monkey, UniProt A3RFZ7 21-206 (rhesus entry)).
T1 construct: also called cyno FcgRIIIaS; cynoFcγRIIIaS; not shown: His-tag added to the C-terminus
Briefly: SPR (BIACORE); KD of SG1 / KD of variant.

Assay [2] deals with T2, cynomolgus monkey FcγRIIa1 extracellular domain with C-terminal His-tag (cynomolgus monkey).
T2 construct: also called cyno FcgRIIa1; cynoFcγRIIa1; not shown: His-tag added to the C-terminus
T2 chain: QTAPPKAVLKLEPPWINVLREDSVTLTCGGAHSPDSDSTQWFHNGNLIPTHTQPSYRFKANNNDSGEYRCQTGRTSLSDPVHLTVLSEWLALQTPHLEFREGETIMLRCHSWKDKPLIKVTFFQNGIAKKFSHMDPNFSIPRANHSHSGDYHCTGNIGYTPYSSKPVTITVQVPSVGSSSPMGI
Briefly: SPR (BIACORE), antibody captured, FcgR analyte. (Surface plasmon resonance follows binding to a sensor surface in real time, without labels.)

Assay [3] has as its target T1, cynomolgus monkey FcγRIIIaS …. The experiment in a line: SPR (BIACORE), antibody captured, FcgR analyte.
For assay [4], the target named is T3, cynomolgus monkey FcγRIIa3 extracellular domain with C-terminal His-tag (cynomolgus monkey).
T3 construct: also called cyno FcgRIIa3; cynoFcγRIIa3; not shown: His-tag added to the C-terminus
T3 chain: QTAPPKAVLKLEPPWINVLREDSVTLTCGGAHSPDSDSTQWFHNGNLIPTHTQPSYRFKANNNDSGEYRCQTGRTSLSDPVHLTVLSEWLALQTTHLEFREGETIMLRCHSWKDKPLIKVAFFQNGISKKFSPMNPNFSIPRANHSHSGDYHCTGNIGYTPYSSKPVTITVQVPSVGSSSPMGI
The experiment in a line: SPR (BIACORE), antibody captured, FcgR analyte.

Assay [5] deals with T4, human FcγRIIaH extracellular domain with C-terminal His-tag (human, UniProt P12318 34-217).
T4 construct: also called human FcgRIIaH; FcγRIIa type H; not shown: His-tag added to the C-terminus
T4 sequence: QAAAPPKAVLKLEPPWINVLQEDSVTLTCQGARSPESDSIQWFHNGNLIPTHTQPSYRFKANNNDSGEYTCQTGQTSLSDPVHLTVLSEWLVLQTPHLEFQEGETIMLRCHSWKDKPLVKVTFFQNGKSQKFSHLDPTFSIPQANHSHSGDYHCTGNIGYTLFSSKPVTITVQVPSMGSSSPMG
Briefly: SPR (BIACORE), antibody captured, FcgR analyte.

Assay [6] concerns the target T5, human FcγRIIIaV extracellular domain with C-terminal His-tag (human, UniProt P08637 17-208).
T5 construct: also called human FcgRIIIaV; not shown: His-tag added to the C-terminus
Briefly: SPR (BIACORE), antibody captured, FcgR analyte.

Assay [7] has as its target T6, human FcγRIIaR extracellular domain with C-terminal His-tag (human, UniProt P12318 34-217).
T6 construct: also called human FcgRIIaR; FcγRIIa type R; not shown: His-tag added to the C-terminus
T6 chain: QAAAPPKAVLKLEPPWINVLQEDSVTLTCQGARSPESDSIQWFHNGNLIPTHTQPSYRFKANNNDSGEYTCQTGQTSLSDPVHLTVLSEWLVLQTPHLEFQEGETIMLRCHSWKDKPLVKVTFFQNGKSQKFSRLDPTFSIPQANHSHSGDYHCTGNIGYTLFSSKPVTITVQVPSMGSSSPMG
Briefly: SPR (BIACORE), antibody captured, FcgR analyte.

T1 sequence (A3RFZ7 21-206): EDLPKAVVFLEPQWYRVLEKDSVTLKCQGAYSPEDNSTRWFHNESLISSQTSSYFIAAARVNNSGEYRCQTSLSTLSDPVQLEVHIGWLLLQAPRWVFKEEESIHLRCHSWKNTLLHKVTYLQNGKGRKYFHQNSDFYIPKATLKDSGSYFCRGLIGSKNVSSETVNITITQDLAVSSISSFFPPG
T5 sequence (P08637 17-208 F176V): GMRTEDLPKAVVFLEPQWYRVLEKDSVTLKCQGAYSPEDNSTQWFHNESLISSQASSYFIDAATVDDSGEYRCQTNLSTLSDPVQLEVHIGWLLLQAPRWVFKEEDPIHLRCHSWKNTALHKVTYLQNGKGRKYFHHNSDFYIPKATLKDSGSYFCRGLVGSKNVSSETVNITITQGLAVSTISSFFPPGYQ

B1: M103205H795-MY105/M103202L889-SK1 (antibody, human IgG1, kappa, name in EU numbering)
heavy: QVTLKESGPVLVKPTETLTLTCTVSGIDLSHDDISWVRQAPGKGLEWVGIISYAGSTYYASWAKGRLTISKDTSKNQVVLTMTNMDPVDTATYYCARGVPAYSHGGDLWGQGTLVTVSSASTKGPSVFPLAPSSKSTSGGTAALGCLVKDYFPEPVTVSWNSGALTSGVHTFPAVLQSSGLYSLSSVVTVPSSSLGTQTYICNVNHKPSNTKVDKKVEPKSCDKTHTCPPCPAPELLNGPVVFLFPPKPKDTLMISRTPEVTCVVVDVSEEDPEVKFNWYVDGVEVHNAKTKPREEQYNSTYRVVSVLTVLHQDWLNGKEYKCKVSNKALPAPIEKTISKAKGQPREPQVYTLPPSREEMTKNQVSLTCLVKGFYPSDIAVEWESNGQPENNYKTTPMVLDSDGSFFLYSKLTVDKSRWQQGNVFSCSVMHEALHNHYTQKSLSLSP
light: DIVMTQSPATLSLSPGERATLSCTSSQSVYHANWLSWFQQKPGQPPKLLIYWASTLAYGVPSRFSGSGSGTDFTLTISSLQPEDAATYYCAGGYGGGRYAFGQGTKVEIKRTVAAPSVFIFPPSDEQLKSGTASVVCLLNNFYPREAKVQWKVDNALQSGNSQESVTEQDSKDSTYSLSSTLTLSKADYEKHKVYACEVTHQGLSSPVTKSFNRGEC
notes: Fc variant of MS1032LO06-SG1; positions in EU numbering
For B1, the “KD fold (SG1 = 1)” value in assay [1] came out at 0.28 fold. Moreover, the dissociation constant Kd in assay [2] came to 1200 nM; in assay [3], 1300 nM; in assay [4], 1500 nM; in assay [5], 1500 nM.

B2: M103205H795-MY199/M103202L889-SK1 (antibody, human IgG1, kappa, name in EU numbering)
heavy: QVTLKESGPVLVKPTETLTLTCTVSGIDLSHDDISWVRQAPGKGLEWVGIISYAGSTYYASWAKGRLTISKDTSKNQVVLTMTNMDPVDTATYYCARGVPAYSHGGDLWGQGTLVTVSSASTKGPSVFPLAPSSKSTSGGTAALGCLVKDYFPEPVTVSWNSGALTSGVHTFPAVLQSSGLYSLSSVVTVPSSSLGTQTYICNVNHKPSNTKVDKKVEPKSCDKTHTCPPCPAPELLNGPSVFLFPPKPKDTLMISRTPEVTCVVVDVSEEDPEVKFNWYVDGVEVHNAKTKPREEQYNSTYRVVSVLTVLHQDWLNGKEYKCKVSNKALPKPIEKTISKAKGQPREPQVYTLPPSREEMTKNQVSLTCLVKGFYPSDIAVEWESNGQPENNYKTTPPVLDSDGSFFLYSKLTVDKSRWQQGNVFSCSVMHEALHNHYTQKSLSLSP
light: DIVMTQSPATLSLSPGERATLSCTSSQSVYHANWLSWFQQKPGQPPKLLIYWASTLAYGVPSRFSGSGSGTDFTLTISSLQPEDAATYYCAGGYGGGRYAFGQGTKVEIKRTVAAPSVFIFPPSDEQLKSGTASVVCLLNNFYPREAKVQWKVDNALQSGNSQESVTEQDSKDSTYSLSSTLTLSKADYEKHKVYACEVTHQGLSSPVTKSFNRGEC
notes: as for B1
In the case of B2, the Kd in assay [2] turned out to be 1900 nM; in assay [3], 41 nM; in assay [6] it was 13000 nM; in assay [5], 1100 nM.

B3: M103205H795-MY289/M103202L889-SK1 (antibody, human IgG1, kappa, name in EU numbering)
heavy: QVTLKESGPVLVKPTETLTLTCTVSGIDLSHDDISWVRQAPGKGLEWVGIISYAGSTYYASWAKGRLTISKDTSKNQVVLTMTNMDPVDTATYYCARGVPAYSHGGDLWGQGTLVTVSSASTKGPSVFPLAPSSKSTSGGTAALGCLVKDYFPEPVTVSWNSGALTSGVHTFPAVLQSSGLYSLSSVVTVPSSSLGTQTYICNVNHKPSNTKVDKKVEPKSCDKTHTCPPCPAPELLNGPSVFLFPPKPKDTLMISRTPEVTCVVVDVSHEDPEVKFNWYVDGVEVHNAKTKPREEQYNSTYRVVSVLTVLHQDWLNGKEYKCKVSNKALPKPIEKTISKAKGQPREPQVYTLPPSREEMTKNQVSLTCLVKGFYPSDIAVEWESNGQPENNYKTTPMVLDSDGSFFLYSKLTVDKSRWQQGNVFSCSVMHEALHNHYTQKSLSLSP
light: DIVMTQSPATLSLSPGERATLSCTSSQSVYHANWLSWFQQKPGQPPKLLIYWASTLAYGVPSRFSGSGSGTDFTLTISSLQPEDAATYYCAGGYGGGRYAFGQGTKVEIKRTVAAPSVFIFPPSDEQLKSGTASVVCLLNNFYPREAKVQWKVDNALQSGNSQESVTEQDSKDSTYSLSSTLTLSKADYEKHKVYACEVTHQGLSSPVTKSFNRGEC
notes: as for B1
For B3, the Kd in assay [2] was found to be 1500 nM; in assay [3], 5200 nM; in assay [7] it was 3500 nM; in assay [4], 8600 nM.

The Kd is a measure of binding affinity in units of concentration.
